What was measured:
[1] = system: Csx30 from Desulfonema ishimotonii, full length
[2] = system: HA-Csx30 S526A/Q428A/R530A/Q531A
[3] = system: N-terminal HA-tagged Csx30 alanine mutants of individual regions of the Csx29-Csx30 interface
[4] = system: Csx30 fragment, residues 396-565
[5] = system: TwinStrep-SUMO-Csx30 1-544 (C-terminal truncation of Csx30)
TwinStrep-SUMO-Csx30 1-544 (C-terminal truncation of Csx30), sequence (chain, as listed by the source): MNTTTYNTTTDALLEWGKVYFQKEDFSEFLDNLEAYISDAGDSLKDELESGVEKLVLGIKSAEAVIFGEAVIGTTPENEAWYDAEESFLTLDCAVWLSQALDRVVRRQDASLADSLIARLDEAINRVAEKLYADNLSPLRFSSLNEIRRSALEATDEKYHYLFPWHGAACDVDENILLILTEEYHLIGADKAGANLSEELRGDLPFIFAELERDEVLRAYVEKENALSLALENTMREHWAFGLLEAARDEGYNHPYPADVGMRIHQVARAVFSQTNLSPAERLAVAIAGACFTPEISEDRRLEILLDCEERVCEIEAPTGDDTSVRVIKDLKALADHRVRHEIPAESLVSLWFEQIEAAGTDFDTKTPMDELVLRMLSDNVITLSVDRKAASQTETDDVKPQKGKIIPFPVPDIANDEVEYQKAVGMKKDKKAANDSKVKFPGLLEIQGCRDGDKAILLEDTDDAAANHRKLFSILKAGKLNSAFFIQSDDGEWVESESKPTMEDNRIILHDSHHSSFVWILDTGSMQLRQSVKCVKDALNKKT

Csx30 from Desulfonema ishimotonii, full length, sequence (chain, as listed by the source): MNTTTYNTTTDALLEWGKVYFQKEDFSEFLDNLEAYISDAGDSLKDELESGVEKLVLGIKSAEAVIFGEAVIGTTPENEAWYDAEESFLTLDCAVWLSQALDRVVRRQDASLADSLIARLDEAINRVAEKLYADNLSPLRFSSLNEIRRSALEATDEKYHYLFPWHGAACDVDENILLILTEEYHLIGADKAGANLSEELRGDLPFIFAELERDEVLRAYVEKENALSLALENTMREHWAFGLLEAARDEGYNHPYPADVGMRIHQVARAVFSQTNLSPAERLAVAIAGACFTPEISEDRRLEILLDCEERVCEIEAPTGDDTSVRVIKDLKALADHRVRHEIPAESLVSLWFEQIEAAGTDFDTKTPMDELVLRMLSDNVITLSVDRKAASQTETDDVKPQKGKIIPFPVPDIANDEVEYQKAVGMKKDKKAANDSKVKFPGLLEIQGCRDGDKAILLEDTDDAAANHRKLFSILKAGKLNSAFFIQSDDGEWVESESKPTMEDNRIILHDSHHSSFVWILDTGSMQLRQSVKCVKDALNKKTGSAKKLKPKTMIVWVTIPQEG
Csx30 fragment, residues 396-565, sequence (chain, as listed by the source): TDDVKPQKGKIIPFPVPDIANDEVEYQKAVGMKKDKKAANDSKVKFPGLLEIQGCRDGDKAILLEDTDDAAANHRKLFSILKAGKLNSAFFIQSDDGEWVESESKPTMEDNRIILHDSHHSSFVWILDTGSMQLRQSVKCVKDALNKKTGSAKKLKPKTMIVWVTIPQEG

Row | Substance | cleavage of Csx30 in in vitro reactions (immunoblot, SDS-PAGE) [1] | cleavage of Up1 within the purified Up1-Up3 complex (SDS-PAGE, Coomassie) [1] | stated: cleaved (target-RNA-dependent cleavage of HA-Csx30, anti-HA immunoblot) [1] | stated: cleaved (target-RNA-dependent cleavage of HA-Csx30, anti-HA immunoblot) (HA-Csx30 K551A/K553A) | stated: cleaved (target-RNA-dependent cleavage of HA-Csx30, anti-HA immunoblot) (HA-Csx30 M527A) | stated: cleaved (target-RNA-dependent cleavage of HA-Csx30, anti-HA immunoblot) [2] | in vitro cleavage of Csx30 alanine mutants (immunoblot) [3] | in vitro cleavage of truncated Csx30 (SDS-PAGE) [4] | molar excess of Csx30 substrate cleaved in vitro [1] | in vitro cleavage of truncated Csx30 (SDS-PAGE) [5]
1 | Cas7-11-Csx29-crRNA complex | Csx30, is specifically cleaved in response to a target RNA | only in the lane with gRAMP-CHAT + and target RNA + do bands appear at about 50 kDa and just above 15 kDa, with a weaker Up1 band; the lanes without gRAMP-CHAT, or with gRAMP-CHAT and no target RNA, show only Up1 and Up3; the Up3 band is unchanged | Wildtype: without target RNA only the upper full-length band; with target RNA the upper band is weak and a strong product band stands just above the 50 kDa mark | K551A/K553A: without target RNA only the upper full-length band; with target RNA a product band just above the 50 kDa mark, and a weaker upper band remains | M527A: without target RNA only the upper full-length band; with target RNA the upper band is faint and a product band stands just above the 50 kDa mark | S526A/Q428A/R530A/Q531A: without target RNA only the upper full-length band; with target RNA the upper band is faint and a product band stands just above the 50 kDa mark | mutating individual regions of the Csx29-Csx30 interface did not significantly affect Csx30 cleavage | – | – | –
2 | dCas7-11-Csx29-crRNA complex (Cas7-11 D429A/D654A) | – | – | – | – | – | – | – | Csx30 fragments containing residues 396-565 were efficiently cleaved in vitro | cleaving 100-fold molar excess of Csx30 substrate in minutes | even a twenty amino acid truncation (Csx301-544) abolished cleavage activity

Source: patent US20250223580
